{"source": "patent US7462695B2", "about": "“Insect chymotrypsin and inhibitors thereof” (Hexima Limited, priority 2003, dated 2008)", "key": {"[1]": {"system": "chymotrypsin activity in gut extracts of H. punctigera larvae", "test": "Inhibition of chymotrypsin activity in individual larval gut extracts (FIG. 2F)", "assay_type": "biochemical, Helicoverpa punctigera", "conditions": "80 nM inhibitor; SAAPFpNA substrate", "description": "(§1) FIG. 2 is a graphical representation showing growth of H. punctigera larvae fed on either low protein haricot bean artificial diet or cotton leaf artificial diet, in the presence or absence of 0.26% (w/v) NaPIs. Weight gain (mg) was monitored for 21 days. […] (A) Growth of larvae. (B) Relative size of larvae at 21 days after feeding on cotton artificial diet, in the presence or absence of 0.26% NaPIs. […] (C) The effect of NaPIs on gut trypsin and chymotrypsin activity. When each H. punctigera larva reached the late fourth/early fifth instar stage of development, the gut was removed and gut extract prepared prior to assays for trypsin and chymotrypsin activity. […] Trypsin activity was determined using BApNA substrate and chymotrypsin activity with SAAPFpNA substrate. Units of activity are expressed as change in absorbance at 405 nm/min/mg gut extract protein (±standard deviation). […] Trypsin activity was determined using BApNA substrate and chymotrypsin activity with SAAPFpNA substrate. Units of activity are expressed as change in absorbance at 405 nm/min/mg faecal extract protein (±standard deviation). […] Frass extracts were analysed on 15% ((w/v)) SDS-PAGE and transferred to nitrocellulose. […] Units of activity are expressed as substrate hydrolysis at 405 nm/min/mg extract protein (±standard deviation). […] Trypsin activity was determined using BApNA substrate. […]"}, "[2]": {"system": "chymotrypsin activity in unfractionated gut extracts from H. punctigera", "test": "Chymotrypsin activity in unfractionated gut extracts with proteinase inhibitors (FIG. 3)", "assay_type": "biochemical, Helicoverpa punctigera", "conditions": "larvae raised on haricot bean diet without added proteinase inhibitors; substrate SAAPFpNA", "protocol": "FIG. 3 is a graphical representation showing the effect of various proteinase inhibitors on the chymotrypsin activity in unfractionated gut extracts from H. punctigera. Proteinase inhibitors were mixed with 1 μg of protein from an unfractionated gut extract before incubation with the chymotrypsin substrate N-succinyl-Ala-Ala-Pro-Phe-p-nitroanilide. Inhibition is expressed as a percentage of the total activity in the control samples.\nFourth-instar larvae were killed using ethyl-acetate prior the removal of individual gut which were then homogenized in a mortar and pestle in an equal amount [(w/v)] of 50 mM Tris-HCl, pH 8.0 containing 100 μM benzamidine. Insoluble material was removed by centrifugation at 20,000 rpm for 15 min at 4° C. and total protein concentration determined using the Bradford method (Bradford, Anal Biochem 72: 248-254, 1976) with reagents from BioRad and BSA as a standard.\nUnfractionated gut extract containing approximately 1 μg of buffer soluble protein was added to 10 μL CAPS buffer (0.5 M, 3-[cyclohexylamino]-1-propane-sulfonic acid, pH 10) and made to a final volume of 100 μL in individual wells of a 96 well microtiter plate. Proteinase inhibitors were added over a range of concentrations and incubated for 15 min at 25° C. Bovine chymotrypsin (100 ng) was used as a positive control, both for activity and inhibition. The chromogenic artificial substrate SAAPFpNA (N-Succinyl-L-alanyl-L-alanyl-L-prolyl-L-phenylalanine 4-nitroanilide) was then added to a final concentration of 1 mM and hydrolysis of the substrate was measured at 405 nm using the SpectraMax 250 microtiter plate reader (Molecular Devices)."}, "[3]": {"system": "trypsin activity in gut extracts of H. punctigera larvae", "test": "Inhibition of trypsin activity in individual larval gut extracts by T1 (FIG. 2F)", "assay_type": "biochemical, Helicoverpa punctigera", "conditions": "80 nM inhibitor; BApNA substrate", "description": "as §1"}, "[4]": {"target": "NaPI-insensitive chymotrypsins from H. punctigera (Helicoverpa punctigera, UniProt A0PGE0)", "sequence (A0PGE0 entry or part of it)": "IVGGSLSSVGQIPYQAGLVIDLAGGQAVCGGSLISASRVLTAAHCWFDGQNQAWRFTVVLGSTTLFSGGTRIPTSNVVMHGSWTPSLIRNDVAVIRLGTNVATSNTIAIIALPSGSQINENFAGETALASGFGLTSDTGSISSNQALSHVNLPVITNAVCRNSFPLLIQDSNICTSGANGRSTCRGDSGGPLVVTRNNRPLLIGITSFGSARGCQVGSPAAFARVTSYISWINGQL", "test": "Inhibition of NaPI-insensitive chymotrypsin (gut extract depleted of trypsins and NaPI-sensitive chymotrypsins)", "assay_type": "biochemical", "conditions": "pH 10, 30 min preincubation at 30° C.; for % Inhibition Insensitive: at maximum concentration tested", "protocol": "The midgut was dissected from 100 fourth instar larvae and buffer soluble extracts were prepared. The gut extract was depleted of NaPI-sensitive proteases by passage through an affinity column composed of immobilized NAPI protein (C1, C2, T1-T4). […] This preparation of unbound material was used to study the pH optimum, substrate preference and effect of a range of proteinase inhibitors on the activity of the NaPI-insensitive proteinase. […] The best substrate for enzyme assays was determined using seven different commercial substrates.\n(§2) Several proteinase inhibitors were tested for their ability to inhibit the activity of the insensitive chymotrypsins. The buffer used for all assays was 500 mM CAPS, 75 mM NaCl, 2.5 mM MgCl2 at pH 10."}, "bovine chymotrypsin": {"target": "bovine chymotrypsin (Bos taurus, UniProt P00766)", "test": "Inhibition of bovine chymotrypsin", "assay_type": "biochemical", "conditions": "100 ng bovine chymotrypsin, pH 10; for % Inhibition BC: at maximum concentration tested", "protocol": "as §2"}, "[5]": {"system": "NaPI-insensitive chymotrypsins from H punctigera", "test": "Inhibition of NaPI-insensitive chymotrypsins by StPotIA and StPotIB (FIG. 26)", "assay_type": "biochemical, Helicoverpa punctigera", "protocol": "FIG. 26 is a graphical representation showing inhibition of NaPI-insensitive chymotrypsin by bacterially expressed StPotIA and StPotIB. Inhibition of the NAPI-insensitive chymotrypsin from the gut of H. punctigera with purified PotI. (A) substrate SA2PFpNA, development time 30 min, (B) substrate SA2PLpNA, 30 min incubation. Mix of PotI isoforms from potato tuber (circle), StPotIA (square), StPotIB (triangle).\nThe inhibitory activity of StPotIA and StPotIB against the NaPI-insensitive chymotrypsins from H punctigera was determined by preincubating the NaPI-insensitive protease (10 μL) with varying amounts of StPotIA and StPotIB (0-600 nM) in 133 mM CAPS buffer, pH 10.0 at 30° C. in 96 well microtitre plates. After the 30 min preincubation, the incubation was started by the addition of substrate (SA2PFpNA, SA2PLpNA or SA2PMpNA) to a final concentration of 1 mM in a final volume of 100 μL. Absorbance was measured at 405 nm after 30 or 60 min."}, "H. armigera larvae": {"system": "H. armigera larvae", "test": "Bioassay of H. armigera larvae on transgenic cotton expressing NaPI and StPotIA (FIG. 27)", "assay_type": "in vivo, Helicoverpa armigera", "protocol": "FIG. 27 is a graphical representation showing growth of H. armigera larvae on transgenic cotton expressing NaPI and PotI. Transgenic cotton cv Coker 315 was used in bioassays with H. armigera. Thirty larvae were fed leaves of either the control untransformed Coker 315, transgenic line 1 (NaPI), transgenic line 2 (StpotIA) or transgenic plant 3 (NaPI×StPot1A). The weight of the larvae was measured at day 7 post-egg hatch. (A) Growth of larvae. At day 7, larvae fed leaves expressing NaPI were 86% of the weight of the control larvae fed untransformed leaves. Larvae fed leaves expressing StPotIA were 92% of the control and larvae fed leaves expressing both NAPI and StPotIA were 46% of the control. (B) The effect of ingestion of NAPI and PotI on gut trypsin and chymotrypsin activity. Gut from the larvae in each experiment were pooled and extracts prepared. All assays were performed in duplicate. Trypsin activity (black) was determined using BApNA substrate and chymotrypsin activity (grey) with SA2PFpNA substrate. Units of activity are expressed as change in absorbance at 405 nm/min/ug gut extract protein. Trypsin activity was reduced, relative to the control, in the extracts from larvae fed leaves expressing NaPI and NaPI+StPotIA. Chymotrypsin activity was elevated in extracts from larvae fed leaves expressing NAPI or NAPI+StPotIA and reduced in extracts from larvae fed StPotIA alone.\nTwo gene constructs (pHEX2 and pHEX6) were prepared for transformation of cotton (Gossypium hirsutum). pHEX2 consists of a 35S promoter driving the NaPI gene with a 35S terminator, inserted into the binary vector pBIN 19 (Bevan, Nucl. Acids Research, 12: 8711-8721, 1984). pHEX6 consists of a 35S promoter driving the StPotIA gene with a 35S terminator inserted into the binary vector pBIN 19.\nTransgenic cotton was produced using the method of Umbek et al., Biotechnology, 5: 263-266, 1987) with modifications. Hypocotyl sections of cotton Cv Coker 315 were co-cultivated with Agrobacterium tumefaciens strain LBA 4404 containing the required binary vector. […]"}}}
{"molecule": "C1: 6 kDa chymotrypsin inhibitor monomer released from the N. alata PI precursor (SEQ ID NO:23) (DRICTNCCAGTKGCKYFSDDGTFVCEGESDPRNPKACTLNCDPRIAYGVCPRSEEKKN; listed as Nicotiana alata)", "values": [{"measurement": "inhibition of chymotrypsin activity, extracts of control larvae (in words)", "setting": "[1]", "result": "did not inhibit chymotrypsin activity in the extracts of six control larvae and only partially inhibited the gut chymotrypsins in the rest of the controls"}, {"measurement": "inhibition of gut chymotrypsin activity", "setting": "[2]", "result": 70, "unit": "%"}]}
{"molecule": "T1: 6 kDa trypsin inhibitor monomer released from the N. alata PI precursor (SEQ ID NO:24) (DRICTNCCAGTKGCKYFSDDGTFVCEGESDPRNPKACPRNCDPRIAYGICPLAEEKKN; listed as Nicotiana alata)", "values": [{"measurement": "inhibition of trypsin activity, extracts from NaPI-fed larvae", "setting": "[3]", "result": "could not be inhibited"}, {"measurement": "inhibition of trypsin activity, extracts of control larvae", "setting": "[3]", "result": "almost totally inhibited"}]}
{"molecule": "O=S(=O)(F)Cc1ccccc1", "note": "[PMSF, phenylmethyl sulphonyl fluoride, reference compound]", "values": [{"measurement": "% Inhibition Insensitive", "setting": "[4]", "result": 100, "unit": "%"}]}
{"molecule": "CC(=O)N[C@@H](CC(C)C)C(=O)N[C@@H](CC(C)C)C(=O)N[C@H](C=O)CCCNC(=N)N", "note": "[Leupeptin, reference compound]", "values": [{"measurement": "IC50", "setting": "bovine chymotrypsin", "result": 2400, "unit": "µM"}, {"measurement": "% Inhibition BC", "setting": "bovine chymotrypsin", "result": 52, "unit": "%"}]}
{"molecule": "Bowman Birk: soybean Bowman Birk inhibitor, purchased from Sigma-Aldrich (protein, UniProt P01055 40-110, looked up) Bowman-Birk type proteinase …: DDESSKPCCDQCACTKSNPPQCRCSDMRLNSCHSACKSCICALSYPAQCFCVDITDFCYEPCKPSEDDKEN", "values": [{"measurement": "% Inhibition Insensitive", "setting": "[4]", "result": 100, "unit": "%"}, {"measurement": "IC50", "setting": "[4]", "result": 0.24, "unit": "µM"}, {"measurement": "inhibition of gut chymotrypsin activity (in words)", "setting": "[2]", "result": "failed to abolish all the chymotrysin activity"}, {"measurement": "IC50", "setting": "bovine chymotrypsin", "result": 0.06, "unit": "µM"}, {"measurement": "% Inhibition BC", "setting": "bovine chymotrypsin", "result": 100, "unit": "%"}]}
{"molecule": "StPotIA: PotI homolog cloned from wounded potato leaf RNA, alanine at P1 site (SEQ ID NO:81); E. coli expressed, His-tagged (protein, His tag; potato, E. coli expressed, His-tagged) MESKFAHIIVFFLLATSFETLMARKEGDGSEVIKLLKESESESWCKGKQFWPELIGVPTKLAKEIIEKENPSINDVPIILNGTPVPADFRCNRVRLFDNILGDVVQIPRVA", "values": [{"measurement": "inhibition of the NaPI-insensitive chymotrypsin (in words)", "setting": "[5]", "result": "good inhibitors"}, {"measurement": "inhibition of SA2PMpNA hydrolysis", "setting": "[5]; substrate SA2PMpNA", "result": 40, "unit": "%"}, {"measurement": "larval weight as % of control larvae fed untransformed leaves", "setting": "H. armigera larvae; day 7 post-egg hatch, protein expressed in transgenic cotton leaves", "result": 92, "unit": "%"}, {"measurement": "effect on larval growth compared to the control (in words)", "setting": "H. armigera larvae; expression in cotton leaves", "result": "small inhibition of larval growth"}, {"measurement": "gut chymotrypsin activity", "setting": "H. armigera larvae; pooled gut extracts, SA2PFpNA", "result": "reduced"}]}
